# Data taken from article PMC4772808, “Insights from the reconstitution of the divergent outer kinetochore of Drosophila melanogaster” (Open Biology, 2016).
# T1: DmMis12b complex (Mis12:Nnf1b:Kmn1) (Drosophila melanogaster, UniProt Q9VS01 1-181; Q8IPW3 1-204; Q9VYX4 1-183)
# T1 construct: Mis12 subunit of the Drosophila melanogaster Mis12 complex; Nnf1b (Nnf1R-2), Drosophila melanogaster; Kmn1, the Nsl1 orthologue of Drosophila melanogaster; source: E. coli BL21(DE3) Rosetta, co-expressed (pST44), purified (His-Trap, ResourceQ, Superdex 200); copies: 1 + 1 + 1
# T1 sequence (looked up) 1: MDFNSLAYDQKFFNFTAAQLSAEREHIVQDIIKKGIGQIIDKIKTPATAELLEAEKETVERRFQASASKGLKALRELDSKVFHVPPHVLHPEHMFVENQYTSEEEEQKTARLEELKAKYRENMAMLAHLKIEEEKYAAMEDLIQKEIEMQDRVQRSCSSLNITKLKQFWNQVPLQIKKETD
# T1 sequence (looked up) 2: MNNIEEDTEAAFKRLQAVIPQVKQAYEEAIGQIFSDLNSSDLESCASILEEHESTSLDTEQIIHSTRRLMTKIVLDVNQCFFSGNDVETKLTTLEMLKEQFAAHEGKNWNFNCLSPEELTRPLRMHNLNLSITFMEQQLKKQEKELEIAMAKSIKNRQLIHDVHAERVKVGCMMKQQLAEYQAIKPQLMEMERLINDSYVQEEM
# T1 sequence (looked up) 3: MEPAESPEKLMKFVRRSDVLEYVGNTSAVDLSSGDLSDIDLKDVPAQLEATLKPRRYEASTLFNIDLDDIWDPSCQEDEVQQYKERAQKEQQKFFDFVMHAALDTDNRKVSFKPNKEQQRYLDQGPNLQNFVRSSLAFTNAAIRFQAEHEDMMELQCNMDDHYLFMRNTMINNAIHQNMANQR
# T2: DmMis12a complex (Mis12:Nnf1a:Kmn1) (Drosophila melanogaster, UniProt Q9VS01 1-181; Q7JZC9 1-194; Q9VYX4 1-183)
# T2 construct: Mis12 subunit of the Drosophila melanogaster Mis12 complex; Nnf1a (Nnf1R-1), Drosophila melanogaster; Kmn1, the Nsl1 orthologue of Drosophila melanogaster; source: E. coli BL21(DE3) Rosetta, co-expressed (pST44), purified (His-Trap, ResourceQ, Superdex 200); copies: 1 + 1 + 1
# T2 sequence (looked up) 1: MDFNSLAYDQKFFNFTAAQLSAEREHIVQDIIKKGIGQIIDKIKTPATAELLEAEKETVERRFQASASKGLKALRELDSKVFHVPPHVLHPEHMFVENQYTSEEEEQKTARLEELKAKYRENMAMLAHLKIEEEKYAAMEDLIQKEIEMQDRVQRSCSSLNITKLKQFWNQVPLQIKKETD
# T2 sequence (looked up) 2: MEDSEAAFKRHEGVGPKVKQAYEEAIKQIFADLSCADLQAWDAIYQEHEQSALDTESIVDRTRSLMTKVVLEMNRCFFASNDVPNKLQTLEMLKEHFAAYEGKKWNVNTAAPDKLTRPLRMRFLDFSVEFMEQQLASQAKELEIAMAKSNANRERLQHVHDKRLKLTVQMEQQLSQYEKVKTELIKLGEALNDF
# T2 sequence (looked up) 3: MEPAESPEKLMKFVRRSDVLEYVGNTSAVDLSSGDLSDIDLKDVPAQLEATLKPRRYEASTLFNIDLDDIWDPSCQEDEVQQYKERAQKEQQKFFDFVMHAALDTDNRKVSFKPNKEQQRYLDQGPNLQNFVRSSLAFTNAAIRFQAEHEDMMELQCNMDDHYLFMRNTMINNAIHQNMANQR
# T3: Mis12a:Spc105R^1707–1960 complex (Drosophila melanogaster, UniProt Q9VS01 1-181; Q7JZC9 1-194; Q9VYX4 1-183; M9PIC9 1707-1960)
# T3 construct: Mis12 subunit of the Drosophila melanogaster Mis12 complex; Nnf1a (Nnf1R-1), Drosophila melanogaster; Kmn1, the Nsl1 orthologue of Drosophila melanogaster; source: E. coli BL21(DE3) Rosetta, co-expressed (pST44), purified (His-Trap, ResourceQ, Superdex 200); copies: 1 + 1 + 1 + 1
# T3 sequence (looked up) 1: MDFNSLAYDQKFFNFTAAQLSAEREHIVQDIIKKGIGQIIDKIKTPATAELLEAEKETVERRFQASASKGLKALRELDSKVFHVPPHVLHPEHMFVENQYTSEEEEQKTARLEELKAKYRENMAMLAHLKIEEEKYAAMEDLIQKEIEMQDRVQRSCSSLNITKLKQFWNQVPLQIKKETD
# T3 sequence (looked up) 2: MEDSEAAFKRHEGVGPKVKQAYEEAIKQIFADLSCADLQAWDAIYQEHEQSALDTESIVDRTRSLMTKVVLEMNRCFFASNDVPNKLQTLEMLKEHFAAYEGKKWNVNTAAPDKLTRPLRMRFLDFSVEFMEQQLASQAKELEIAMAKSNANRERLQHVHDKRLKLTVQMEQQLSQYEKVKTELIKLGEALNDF
# T3 sequence (looked up) 3: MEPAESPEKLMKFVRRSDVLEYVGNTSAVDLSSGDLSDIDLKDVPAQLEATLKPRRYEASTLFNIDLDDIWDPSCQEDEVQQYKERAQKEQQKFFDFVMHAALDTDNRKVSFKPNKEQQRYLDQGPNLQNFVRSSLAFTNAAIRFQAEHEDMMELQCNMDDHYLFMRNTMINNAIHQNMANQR
# T3 sequence (looked up) 4: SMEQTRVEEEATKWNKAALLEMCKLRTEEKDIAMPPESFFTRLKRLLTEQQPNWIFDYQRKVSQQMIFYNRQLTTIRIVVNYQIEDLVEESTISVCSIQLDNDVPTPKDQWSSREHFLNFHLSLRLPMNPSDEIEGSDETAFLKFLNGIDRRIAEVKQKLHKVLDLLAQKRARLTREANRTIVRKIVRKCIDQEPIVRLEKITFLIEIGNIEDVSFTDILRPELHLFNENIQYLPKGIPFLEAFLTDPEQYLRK
# Legend:
# Experiment in all cases: AUC; sedimentation velocity, 42 000 rpm, 20°C, 20 mM Tris pH 8, 0.15 M NaCl, 1 mM TCEP, absorbance at 280 nm, c(S) analysis with SEDFIT
# Settings in all cases: both partners purified
# [1] = biological target: T1, DmMis12b complex (Mis12:Nnf1b:Kmn1)
# [2] = biological target: T2, DmMis12a complex (Mis12:Nnf1a:Kmn1)
# [3] = biological target: T3, Mis12a:Spc105R^1707–1960 complex
stoichiometry N [1],stoichiometry N [2],stoichiometry N [3],Binder
1,1,–,"Spc105R^1707–1960 (domain or fragment, Drosophila melanogaster, UniProt M9PIC9 1707-1960, looked up, Soluble only when co-expressed with the Mis12a or Mis12b complex) SMEQTRVEEEATKWNKAALLEMCKLRTEEKDIAMPPESFFTRLKRLLTEQQPNWIFDYQRKVSQQMIFYNRQLTTIRIVVNYQIEDLVEESTISVCSIQLDNDVPTPKDQWSSREHFLNFHLSLRLPMNPSDEIEGSDETAFLKFLNGIDRRIAEVKQKLHKVLDLLAQKRARLTREANRTIVRKIVRKCIDQEPIVRLEKITFLIEIGNIEDVSFTDILRPELHLFNENIQYLPKGIPFLEAFLTDPEQYLRK"
–,1,1,"DmCENP-C^1–105 (domain or fragment, Drosophila melanogaster, UniProt Q9VHP9 1-105, looked up, source: E. coli BL21(DE3) Rosetta, purified (His-Trap, ResourceQ, Superdex 200)) MSKPQNNDTLELDDILSQPVKDKERFAAFMMRKLAENKPAQNDNLFGNFKLDFDLDFEVPLIKKSQAKPKSKLPEVQPLGELVSKNSAATEKVNEPPVDQAPNEN"
